From the supplement of paper PMC11246515
± gives the standard deviation of the averaged measurements.

Assay: total protein half-life in vivo (active degradation + dilution); higher = more stable protein
[1] = E. coli NCM3722 delta-clpP delta-lon delta-hslV, growth: N-lim chemostat, doubling time 6 h
[2] = E. coli NCM3722 delta-hslV, growth: N-lim chemostat, doubling time 6 h
[3] = E. coli NCM3722 delta-lon, growth: N-lim chemostat, doubling time 6 h
[4] = wild type E. coli NCM3722, growth: C-lim chemostat, doubling time 3 h
[5] = wild type E. coli NCM3722, growth: C-lim chemostat, doubling time 6 h
[6] = wild type E. coli NCM3722, growth: N-lim chemostat, doubling time 6 h
[7] = wild type E. coli NCM3722, growth: P-lim chemostat, doubling time 12 h
[8] = E. coli NCM3722 delta-clpP, growth: N-lim chemostat, doubling time 6 h
[9] = E. coli NCM3722 delta-smpB, growth: N-lim chemostat, doubling time 6 h
[10] = wild type E. coli NCM3722, growth: C-lim chemostat, doubling time 12 h
[11] = wild type E. coli NCM3722, growth: N-lim chemostat, doubling time 12 h
[12] = wild type E. coli NCM3722, growth: P-lim chemostat, doubling time 6 h

Row | Sequence | total protein half-life in vivo [1] | total protein half-life in vivo [2] | total protein half-life in vivo [3] | total protein half-life in vivo [4] | total protein half-life in vivo [5] | total protein half-life in vivo [6] | total protein half-life in vivo [7] | total protein half-life in vivo [8] | total protein half-life in vivo [9] | total protein half-life in vivo [10] | total protein half-life in vivo [11] | total protein half-life in vivo [12]
1 | MDDCGAILHNIETKWLYDFLTLEKCRNFSQAAVSRNVSQPAFSRRIRALEQAIGVELFNRQVTPLQLSEQGKIFHSQIRHLLQQLESNLAELRGGSDYAQRKIKIAAAHSLSLGLLPSIISQMPPLFTWAIEAIDVDEAVDKLREGQSDCIFSFHDEDLLEAPFDHIRLFESQLFPVCASDEHGEALFNLAQPHFPLLNYSRNSYMGRLINRTLTRHSELSFSTFFVSSMSELLKQVALDGCGIAWLPEYAIQQEIRSGKLVVLNRDELVIPIQAYAYRMNTRMNPVAERFWRELRELEIVLS | 5 ± 0.22 h | 4.98 h | 4.5 h | 2.52 h | 5.18 h | 5.51 h | 10.4 ± 0.27 h | – | – | – | – | –
2 | MQNAGSLVVLGSINADHILNLQSFPTPGETVTGNHYQVAFGGKGANQAVAAGRSGANIAFIACTGDDSIGESVRQQLATDNIDITPVSVIKGESTGVALIFVNGEGENVIGIHAGANAALSPALVEAQRERIANASALLMQLESPLESVMAAAKIAHQNKTIVALNPAPARELPDELLALVDIITPNETEAEKLTGIRVENDEDAAKAAQVLHEKGIRTVLITLGSRGVWASVNGEGQRVPGFRVQAVDTIAAGDTFNGALITALLEEKPLPEAIRFAHAAAAIAVTRKGAQPSVPWREEIDAFLDRQR [P0A9J6] | – | 4.44 ± 0.042 h | 4.91 ± 0.38 h | 3.14 ± 0.1 h | 5.66 ± 0.076 h | 4.74 ± 0.36 h | 11.9 ± 0.91 h | 6.07 ± 2.1 h | 4.54 ± 0.2 h | 11.8 ± 0.53 h | 7.76 ± 0.41 h | 5.878 ± 0.056 h
3 | MTPLVKDIIMSSTRMPALFLGHGSPMNVLEDNLYTRSWQKLGMTLPRPQAIVVVSAHWFTRGTGVTAMETPPTIHDFGGFPQALYDTHYPAPGSPALAQRLVELLAPIPVTLDKEAWGFDHGSWGVLIKMYPDADIPMVQLSIDSSKPAAWHFEMGRKLAALRDEGIMLVASGNVVHNLRTVKWHGDSSPYPWATSFNEYVKANLTWQGPVEQHPLVNYLDHEGGTLSNPTPEHYLPLLYVLGAWDGQEPITIPVEGIEMGSLSMLSVQIG | – | – | – | 2.85 h | 5.76 h | 3.76 h | 10.5 ± 0.65 h | 3.18 h | – | 11.3 h | – | 5.45 h
4 | MASVSISCPSCSATDGVVRNGKSTAGHQRYLCSHCRKTWQLQFTYTASQPGTHQKIIDMAMNGVGCRATARIMGVGLNTILRHLKNSGRSR [P0CF07] | 2.96 h | – | – | – | – | – | 2.5 h | – | – | – | – | –
5 | MSVIGRIHSFESCGTVDGPGIRFITFFQGCLMRCLYCHNRDTWDTHGGKEVTVEDLMKEVVTYRHFMNASGGGVTASGGEAILQAEFVRDWFRACKKEGIHTCLDTNGFVRRYDPVIDELLEVTDLVMLDLKQMNDEIHQNLVGVSNHRTLEFAKYLANKNVKVWIRYVVVPGWSDDDDSAHRLGEFTRDMGNVEKIELLPYHELGKHKWVAMGEEYKLDGVKPPKKETMERVKGILEQYGHKVMF [P0A9N4] | 4.86 ± 0.073 h | 5.08 ± 0.1 h | 4.485 ± 0.029 h | 2.9 ± 0.1 h | 5.48 ± 1 h | 4.41 ± 0.36 h | 10.1 ± 0.91 h | 5.05 ± 1.6 h | 3.9 ± 0.28 h | 9.78 ± 0.27 h | 6.62 ± 0.36 h | 4.78 ± 0.3 h
6 | MKRKRLFLLASLLPMFALAGNKWNTTLPGGNMQFQGVIIAETCRIEAGDKQMTVNMGQISSNRFHAVGEDSAPVPFVIHLRECSTVVSERVGVAFHGVADGKNPDVLSVGEGPGIATNIGVALFDDEGNLVPINRPPANWKRLYSGSTSLHFIAKYRATGRRVTGGIANAQAWFSLTYQ | – | – | – | 2.67 h | 6.06 h | – | – | – | 5.7 ± 0.54 h | – | – | –
7 | MITTRTARQCGQADYGWLQARYTFSFGHYFDPKLLGYASLRVLNQEVLAPGAAFQPRTYPKVDILNVILDGEAEYRDSEGNHVQASAGEALLLSTQPGVSYSEHNLSKDKPLTRMQLWLDACPQRENPLIQKLALNMGKQQLIASPEGAMGSLQLRQQVWLHHIVLDKGESANFQLHGPRAYLQSIHGKFHALTHHEEKAALTCGDGAFIRDEANITLVADSPLRALLIDLPV | 5.48 ± 0.071 h | 5.31 ± 0.28 h | 4.33 ± 0.52 h | – | 4.71 h | 6.13 h | 9.05 ± 0.27 h | 4.42 ± 0.18 h | 4.37 ± 0.26 h | 9.966 ± 0.01 h | 8.48 ± 1.3 h | 4.66 ± 0.36 h
8 | MFEIHPVKKVSVVIPVYNEQESLPELIRRTTTACESLGKEYEILLIDDGSSDNSAHMLVEASQAENSHIVSILLNRNYGQHSAIMAGFSHVTGDLIITLDADLQNPPEEIPRLVAKADEGYDVVGTVRQNRQDSWFRKTASKMINRLIQRTTGKAMGDYGCMLRAYRRHIVDAMLHCHERSTFIPILANIFARRAIEIPVHHAEREFGESKYSFMRLINLMYDLVTCLTTTPLRMLSLLGSIIAIGGFSIAVLLVILRLTFGPQWAAEGVFMLFAVLFTFIGAQFIGMGLLGEYIGRIYTDVRARPRYFVQQVIRPSSKENE | 5.758 ± 0.026 h | 6.356 ± 0.027 h | 6.156 ± 0.045 h | 2.84 ± 0.4 h | 6.77 ± 1.7 h | 6.21 ± 0.57 h | 12.1 ± 0.46 h | – | 6.14 ± 0.12 h | 11.6 ± 0.56 h | 12.6 ± 0.58 h | 6.08 ± 0.52 h
